Data on one molecule can be found in patent publication US20240279328A1 (Johns Hopkins, published 2024).

Experiment [1] deals with T1, human Interleukin-2 (human, UniProt P60568 21-153, biotinylated (site not stated) when immobilised on streptavidin biosensors; soluble in the competition studies).
T1 construct: also called IL-2; hIL-2
The experiment is described as follows: BLI, kinetic KD, immobilised human IL-2, soluble antibody. (In general: BLI is a label-free optical method that tracks binding on a fibre tip over time.)

Experiment [2] has as its target T1, human Interleukin-2. The experiment is described as follows: cell-based or functional assay.
The target of experiment [3] is T1, human Interleukin-2. The experiment is described as follows: BLI, equilibrium KD from titration curve, immobilised human IL-2, soluble antibody; Equilibrium KD, not kinetic KD.
Experiment [4] addresses T1, human Interleukin-2. The experiment is described as follows: BLI (Octet), immobilised human IL-2, soluble antibody, 1:1 Langmuir fit.

Broadly, the Kd is the free concentration of one partner at which half of the binding sites on the other are occupied at equilibrium, for simple one-to-one binding. The low end stands for a tighter complex, the high end for a looser complex. The koff is the first-order rate constant of dissociation. A lower koff goes with slow dissociation. The kon is a measure of how fast the partners come together. Read a high kon as faster complex formation.

T1 sequence (P60568 21-153 limits assumed): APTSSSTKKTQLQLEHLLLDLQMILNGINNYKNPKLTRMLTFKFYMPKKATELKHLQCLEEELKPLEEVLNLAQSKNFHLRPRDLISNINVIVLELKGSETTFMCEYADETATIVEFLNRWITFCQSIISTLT

B1: F5111 antibody (wild type anti-hIL2 antibody, human IgG1, lambda light chain) (antibody)
heavy: not shown
light: GSNFMLTQPHSVSESPGKTVTISCTRSSGSIASNYVQWYQQRPGSSPTTVIYEDNQRPSGVPDRFSGSIDSSSNSASLTISGLKTEDEADYYCQSYDSSNVVFGGGTKLTVLGQPKAAPSVTLFPPSSEELQANKATLVCLISDFYPGAVTVAWKADSSPVKAGVETTTPSKQSNNKYAASSYLSLTPEQWKSHRSYSCQVTHEGSTVEKTVAPTECS
notes: Expressed in CHO cells, purified on protein G; also called F5111 WT; parent F5111 mAb
In the experiment with human Interleukin-2 [1], B1 yielded a Kd of 630 pM. Also, in the experiment with human Interleukin-2 [2], the “YT+ EC50 (STAT5 phosphorylation, IL-2Rα+ YT-1 cells)” value turned out to be 150 pM and the “YT- EC50 (STAT5 phosphorylation, IL-2Rα- YT-1 cells)” value was found to be 660 pM. The molecule further registered a dissociation constant (Kd) with human Interleukin-2 [3] of 6500 pM. In the experiment with human Interleukin-2 [4], this molecule displayed a koff of 0.00022 s⁻¹ and a kon of 360000 M⁻¹ s⁻¹.
